Data taken from US20170189519A1.

Key:
Conditions in all cases: remark: other sources report otherwise
[1] = target: NY_s127H1-t2-cl18long (influenza A virus H1N1 A/New York/629/95)
[2] = target: Tex_s127H1-t2-cl18long (influenza A virus H1N1 A/Texas/UR06-0526/07)
[3] = target: 216E5 (influenza A H1N1 A/Brisbane/59/2007); assay: ELISA, coated CR6261, P. pastoris medium
[4] = target: 127H1 (influenza A H1N1 A/Brisbane/59/2007); assay: ELISA, coated CR6261, P. pastoris medium
[5] = target: 104C4 (influenza A H1N1 A/Brisbane/59/2007); assay: ELISA, coated CR6261, P. pastoris medium
[6] = target: 188G10 (influenza A H1N1 A/Brisbane/59/2007); assay: ELISA, coated CR6261, P. pastoris medium
[7] = target: 233F11 (influenza A H1N1 A/Brisbane/59/2007); assay: ELISA, coated CR6261, P. pastoris medium
[8] = target: 115A1 (influenza A H1N1 A/Brisbane/59/2007); assay: ELISA, coated CR6261, P. pastoris medium
[9] = target: 307A10 (influenza A H1N1 A/Brisbane/59/2007); assay: ELISA, coated CR6261, P. pastoris medium
[10] = target: 243D6 (influenza A H1N1 A/Brisbane/59/2007); assay: ELISA, coated CR6261, P. pastoris medium
[11] = target: 24782 (influenza A H1N1 A/Brisbane/59/2007); assay: ELISA, coated CR6261, P. pastoris medium
[12] = target: 134D3 (influenza A H1N1 A/Brisbane/59/2007); assay: ELISA, coated CR6261, P. pastoris medium
[13] = target: 148D5 (influenza A H1N1 A/Brisbane/59/2007); assay: ELISA, coated CR6261, P. pastoris medium
[14] = target: 20688 (influenza A H1N1 A/Brisbane/59/2007); assay: ELISA, coated CR6261, P. pastoris medium
[15] = target: 284B9 (influenza A H1N1 A/Brisbane/59/2007); assay: ELISA, coated CR6261, P. pastoris medium
[16] = target: 101D4 (influenza A H1N1 A/Brisbane/59/2007); assay: ELISA, coated CR6261, P. pastoris medium
[17] = target: 182H2 (influenza A H1N1 A/Brisbane/59/2007); assay: ELISA, coated CR6261, P. pastoris medium
[18] = target: 272H2 (influenza A H1N1 A/Brisbane/59/2007); assay: ELISA, coated CR6261, P. pastoris medium
[19] = target: 194E4 (influenza A H1N1 A/Brisbane/59/2007); assay: ELISA, coated CR6261, P. pastoris medium
[20] = target: 123E2 (influenza A H1N1 A/Brisbane/59/2007); assay: ELISA, coated CR6261, P. pastoris medium
[21] = target: 129C2 (influenza A H1N1 A/Brisbane/59/2007); assay: ELISA, coated CR6261, P. pastoris medium
[22] = target: 25304 (influenza A H1N1 A/Brisbane/59/2007); assay: ELISA, coated CR6261, P. pastoris medium
[23] = target: 304G11 (influenza A H1N1 A/Brisbane/59/2007); assay: ELISA, coated CR6261, P. pastoris medium
[24] = target: 126C3 (influenza A H1N1 A/Brisbane/59/2007); assay: ELISA, coated CR6261, P. pastoris medium
[25] = target: 230G9 (influenza A H1N1 A/Brisbane/59/2007); assay: ELISA, coated CR6261, P. pastoris medium
[26] = target: 194C8 (influenza A H1N1 A/Brisbane/59/2007); assay: ELISA, coated CR6261, P. pastoris medium
[27] = target: 134A3 (influenza A H1N1 A/Brisbane/59/2007); assay: ELISA, coated CR6261, P. pastoris medium
[28] = target: 188F4 (influenza A H1N1 A/Brisbane/59/2007); assay: ELISA, coated CR6261, P. pastoris medium
[29] = target: 127A7 (influenza A H1N1 A/Brisbane/59/2007); assay: ELISA, coated CR6261, P. pastoris medium
[30] = target: 252F5 (influenza A H1N1 A/Brisbane/59/2007); assay: ELISA, coated CR6261, P. pastoris medium
[31] = target: 213B2 (influenza A H1N1 A/Brisbane/59/2007); assay: ELISA, coated CR6261, P. pastoris medium
[32] = target: 199F3 (influenza A H1N1 A/Brisbane/59/2007); assay: ELISA, coated CR6261, P. pastoris medium
[33] = target: 137C5 (influenza A H1N1 A/Brisbane/59/2007); assay: ELISA, coated CR6261, P. pastoris medium
[34] = target: 174G3 (influenza A H1N1 A/Brisbane/59/2007); assay: ELISA, coated CR6261, P. pastoris medium
[35] = target: 187C6 (influenza A H1N1 A/Brisbane/59/2007); assay: ELISA, coated CR6261, P. pastoris medium

B1: CR6261 (antibody, V domains shown)
VH: EVQLVESGAEVKKPGSSVKVSCKASGGPFRSYAISWVRQAPGQGPEWMGGIIPIFGTTKYAPKFQGRVTITADDFAGTVYMELSSLRSEDTAMYYCAKHMGYQVRETMDVWGKGTTVTVSS
VL: QSVLTQPPSVSAAPGQKVTISCSGSSSNIGNDYVSWYQQLPGTAPKLLIYDNNKRPSGIPDRFSGSKSGTSATLGITGLQTGDEANYYCATWDRRPTAYVVFGGGTKLTVLG
Question: B1 was tested. Which EC50 [1] did it give?
Answer: Its EC50 is 0.455 µg/mL.

Question: And the EC50 [2]?
Answer: Its EC50 is 0.369 µg/mL.

Question: And the CR6261 binding signal [3]?
Answer: The CR6261 binding signal was 335000.

Question: What about the CR6261 binding signal [4] of the same binder?
Answer: Its CR6261 binding signal is 800000.

Question: What about the CR6261 binding signal [5] of the same binder?
Answer: The CR6261 binding signal was 521000.

Question: And the CR6261 binding signal [6]?
Answer: The CR6261 binding signal was 143000.

Question: And the CR6261 binding signal [7]?
Answer: The CR6261 binding signal was 583000.

Question: And the CR6261 binding signal [8]?
Answer: The CR6261 binding signal was 1.18e+06.

Question: And the CR6261 binding signal [9]?
Answer: Its CR6261 binding signal is 115000.

Question: And the CR6261 binding signal [10]?
Answer: Its CR6261 binding signal is 132000.

Question: What about the CR6261 binding signal [11] of the same binder?
Answer: The CR6261 binding signal was 415000.

Question: What about the CR6261 binding signal [12] of the same binder?
Answer: The CR6261 binding signal was 304000.

Question: And the CR6261 binding signal [13]?
Answer: Its CR6261 binding signal is 329000.

Question: What about the CR6261 binding signal [14] of the same binder?
Answer: Its CR6261 binding signal is 286000.

Question: What about the CR6261 binding signal [15] of the same binder?
Answer: Its CR6261 binding signal is 1.66e+06.

Question: What about the CR6261 binding signal [16] of the same binder?
Answer: Its CR6261 binding signal is 337000.

Question: What about the CR6261 binding signal [17] of the same binder?
Answer: The CR6261 binding signal was 110000.

Question: And the CR6261 binding signal [18]?
Answer: The CR6261 binding signal was 263000.

Question: What about the CR6261 binding signal [19] of the same binder?
Answer: Its CR6261 binding signal is 409000.

Question: What about the CR6261 binding signal [20] of the same binder?
Answer: The CR6261 binding signal was 477000.

Question: And the CR6261 binding signal [21]?
Answer: Its CR6261 binding signal is 199000.

Question: What about the CR6261 binding signal [22] of the same binder?
Answer: Its CR6261 binding signal is 396000.

Question: And the CR6261 binding signal [23]?
Answer: The CR6261 binding signal was 111000.

Question: What about the CR6261 binding signal [24] of the same binder?
Answer: The CR6261 binding signal was 220000.

Question: What about the CR6261 binding signal [25] of the same binder?
Answer: Its CR6261 binding signal is 855000.

Question: And the CR6261 binding signal [26]?
Answer: Its CR6261 binding signal is 242000.

Question: What about the CR6261 binding signal [27] of the same binder?
Answer: Its CR6261 binding signal is 532000.

Question: And the CR6261 binding signal [28]?
Answer: The CR6261 binding signal was 287000.

Question: And the CR6261 binding signal [29]?
Answer: Its CR6261 binding signal is 233000.

Question: What about the CR6261 binding signal [30] of the same binder?
Answer: Its CR6261 binding signal is 422000.

Question: And the CR6261 binding signal [31]?
Answer: The CR6261 binding signal was 132000.

Question: What about the CR6261 binding signal [32] of the same binder?
Answer: Its CR6261 binding signal is 329000.

Question: What about the CR6261 binding signal [33] of the same binder?
Answer: Its CR6261 binding signal is 296000.

Question: And the CR6261 binding signal [34]?
Answer: The CR6261 binding signal was 491000.

Question: What about the CR6261 binding signal [35] of the same binder?
Answer: The CR6261 binding signal was 345000.
